± gives the standard deviation of the averaged measurements.
Test system: ATP
Experiment: switch fluorescence ratio, 500 uM ATP over buffer (Cy3 cluster intensity, sum of 5 cycles each) (fold (ratio)); higher = stronger signal-on switching upon ATP binding; sequences stand for … in TCGTCGGCAGCGTCAGATGTGTATAAGAGACAGTTTTTTTTTTTTTTTTTTTTTTTTT…TC
Details: aptamer strand: ATP DNA aptamer (quencher-CACCTGGGGGAGTATTGCGGAGGAAGG + anchor), 100 nM annealed; ATP concentration: 500 uM
Method in brief: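 Switching-strand clusters labelled with Cy3 on a modified Illumina MiSeq flow-cell were annealed to 100 nM quencher-labelled ATP aptamer, imaged in selection buffer, and re-imaged after 15 min with 500 uM ATP at 22 °C. This was done over five cycles with NaOH stripping and re-annealing in between. The fluorescence ratio is summed target-cycle over summed buffer-cycle Cy3 intensity per cluster, averaged per switch-domain sequence, excluding clusters outside 100-1000 RFU.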
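Further: ATP exposure 15 min at 22 °C before imaging.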

| Sequence | switch fluorescence ratio |
| --- | --- |
| AAATGGTATC | 1.01 ± 0.028 |
| AAATGGTGGT | 1.02 ± 0.018 |
| AAATGGTTCC | 1.72 ± 1 |
| AAATGTCCGG | 1 ± 0.024 |
| AAATGTGAAT | 1 ± 0.029 |
| AAATGTGGAA | 0.994 ± 0.018 |
| AAATGTGTCT | 1.01 ± 0.04 |
| AAATGTTACA | 1.06 ± 0.021 |
| AAATGTTTAT | 0.9804 ± 0.0017 |
| AAATTAAAAG | 0.984 ± 0.031 |
| AAATTAATGT | 1 ± 0.018 |
| AAATTAGCGG | 0.987 ± 0.032 |
| AAATTAGGCG | 0.975 ± 0.021 |
| AAATTATGGA | 0.969 ± 0.075 |
| AAATTCGTAT | 0.9976 ± 0.0068 |
| AAATTGAGAG | 1.004 ± 0.0021 |
| AAATTGGGCT | 1.03 ± 0.026 |
| AAATTGGTCC | 1.02 ± 0.016 |
| AAATTTATAT | 1.02 ± 0.015 |
| AAATTTCGTT | 0.966 ± 0.016 |
| AAATTTGTTA | 0.985 ± 0.04 |
| AAATTTTCGA | 1.018 ± 0.0088 |
| AAATTTTTTG | 1 ± 0.023 |
| AACAAATTTT | 1.012 ± 0.0097 |
| AACAACCGGT | 0.961 ± 0.031 |

| Sequence | switch fluorescence ratio |
| --- | --- |
| AACAACTCCA | 1.015 ± 0.0036 |
| AACAAGTAAT | 1 ± 0.018 |
| AACAATTATT | 1.04 ± 0.048 |
| AACAGGCGGC | 0.9872 ± 0.00069 |
| AACAGGGCGG | 1.01 ± 0.015 |
| AACATATCTT | 0.996 ± 0.014 |
| AACATATGTT | 0.972 ± 0.025 |
| AACATCGTAC | 1.12 ± 0.06 |
| AACATCTAGA | 0.965 ± 0.011 |
| AACATGAGGA | 1 ± 0.02 |
| AACATTATGT | 1 ± 0.04 |
| AACATTGTTT | 1.01 ± 0.016 |
| AACCAAGGTT | 1.05 ± 0.082 |
| AACCAGGGGC | 1.37 ± 0.091 |
| AACCAGTGAT | 1.05 ± 0.017 |
| AACCATTAGG | 0.9956 ± 0.0053 |
| AACCCAATTT | 0.985 ± 0.015 |
| AACCCGGGGT | 0.99 ± 0.045 |
| AACCCTTTCA | 1.06 ± 0.035 |
| AACCGCCCTT | 1.27 ± 0.15 |
| AACCGGGATC | 1.14 ± 0.013 |
| AACCTGGTAT | 1.01 ± 0.035 |
| AACCTTAGTC | 1.1 ± 0.045 |
| AACGAAAAAG | 1.12 ± 0.18 |
| AACGAAAATG | 0.997 ± 0.053 |

| Sequence | switch fluorescence ratio |
| --- | --- |
| AACGAAGGTA | 0.9884 ± 0.0011 |
| AACGACTATG | 1.05 ± 0.029 |
| AACGAGGAGT | 1.01 ± 0.0058 |
| AACGAGGGGA | 0.9716 ± 0.0045 |
| AACGAGTGAC | 1.04 ± 0.019 |
| AACGAGTGAG | 1.01 ± 0.023 |
| AACGAGTGGG | 1.03 ± 0.019 |
| AACGCATAGG | 1.176 ± 0.0078 |
| AACGCATATT | 1.85 ± 0.78 |
| AACGCCATGC | 2.68 ± 0.38 |
| AACGCTCGTC | 1.02 ± 0.06 |
| AACGGAAAGG | 1.01 ± 0.017 |
| AACGGGAATT | 1.039 ± 0.0056 |
| AACGGGGAAG | 0.995 ± 0.022 |
| AACGGGGGGT | 0.997 ± 0.033 |
| AACGGGGTAG | 0.983 ± 0.034 |
| AACGGGTTAT | 0.995 ± 0.032 |
| AACGGGTTGG | 0.998 ± 0.047 |
| AACGGTAAAT | 1.01 ± 0.085 |
| AACGGTAGGT | 1.01 ± 0.018 |
| AACGGTCTTT | 0.997 ± 0.014 |
| AACGTATGTG | 0.937 ± 0.025 |
| AACGTGGCGG | 0.988 ± 0.018 |
| AACGTGGGGC | 1.01 ± 0.05 |
| AACGTGTATT | 1.1 ± 0.12 |

| Sequence | switch fluorescence ratio |
| --- | --- |
| AACGTTATGC | 1.13 ± 0.069 |
| AACGTTTAAA | 1.04 ± 0.1 |
| AACGTTTTCC | 1.23 ± 0.1 |
| AACTAATTCA | 0.99298 ± 0.00078 |
| AACTACAACG | 1.05 ± 0.018 |
| AACTAGTCAA | 1.015 ± 0.0081 |
| AACTAGTGGC | 0.998 ± 0.049 |
| AACTAGTGGG | 1.02 ± 0.024 |
| AACTCATTCA | 1.02 ± 0.025 |
| AACTGAGAAG | 0.988 ± 0.015 |
| AACTGAGTGC | 1 ± 0.043 |
| AACTGGGGTG | 1.03 ± 0.03 |
| AACTGGTGTC | 1.006 ± 0.003 |
| AACTTACTTT | 1.13 ± 0.021 |
| AACTTCAGCT | 0.995 ± 0.03 |
| AACTTGGCTT | 0.969 ± 0.035 |
| AACTTTTATG | 1 ± 0.026 |
| AACTTTTTAT | 1.04 ± 0.042 |
| AACTTTTTGG | 0.99 ± 0.013 |
| AAGAAAGGGC | 1 ± 0.041 |
| AAGAAAGTGG | 0.993 ± 0.034 |
| AAGAAGACGG | 1.23 ± 0.35 |
| AAGAAGTAGG | 1 ± 0.062 |
| AAGAAGTCCT | 0.983 ± 0.034 |
| AAGAATGCGG | 0.988 ± 0.027 |

| Sequence | switch fluorescence ratio |
| --- | --- |
| AAGAATGGCC | 0.954 ± 0.0032 |
| AAGAATGTGT | 0.978 ± 0.056 |
| AAGAATTGCG | 0.97 ± 0.033 |
| AAGACGAGTT | 0.9962 ± 0.0022 |
| AAGACGGGTT | 1.02 ± 0.077 |
| AAGACTGAGG | 0.956 ± 0.026 |
| AAGACTTTTT | 1.025 ± 0.0076 |
| AAGAGAACTT | 0.993 ± 0.013 |
| AAGAGAGAGC | 0.989 ± 0.007 |
| AAGAGAGGGT | 0.998 ± 0.042 |
| AAGAGCACT | 1.05 ± 0.048 |
| AAGAGGATGG | 0.979 ± 0.011 |
| AAGAGGCCCC | 0.9991 ± 0.0067 |
| AAGAGGGGAT | 0.985 ± 0.031 |
| AAGAGGGGCG | 1.022 ± 0.0032 |
| AAGAGGGTAA | 0.963 ± 0.012 |
| AAGAGGTAAA | 0.972 ± 0.025 |
| AAGAGGTTGC | 0.99 ± 0.044 |
| AAGAGTACAT | 0.993 ± 0.034 |
| AAGAGTGCGG | 0.9742 ± 0.0074 |
| AAGAGTGGCT | 1.03 ± 0.017 |
| AAGAGTTGTA | 1.01 ± 0.019 |
| AAGATGAGCT | 1.004 ± 0.0043 |
| AAGATGCTTA | 0.9863 ± 0.0012 |
| AAGATGGTGG | 1.004 ± 0.0057 |

| Sequence | switch fluorescence ratio |
| --- | --- |
| AAGATTATGG | 0.984 ± 0.035 |
| AAGATTGCTT | 0.9874 ± 0.0032 |
| AAGATTTGGG | 0.991 ± 0.027 |
| AAGCAGAGGC | 1.004 ± 0.0031 |
| AAGCAGGCGG | 1.02 ± 0.021 |
| AAGCAGGGGT | 0.982 ± 0.074 |
| AAGCCAAGGT | 1.033 ± 0.0084 |
| AAGCCAGGGG | 1.46 ± 0.0077 |
| AAGCCATCCG | 1.07 ± 0.04 |
| AAGCCCGACG | 1.13 ± 0.11 |
| AAGCCCGAGG | 0.981 ± 0.02 |
| AAGCCGCTCG | 1 ± 0.015 |
| AAGCCGGAGC | 1.02 ± 0.053 |
| AAGCCGTTTG | 1.07 ± 0.088 |
| AAGCGAAAAA | 1.01 ± 0.092 |
| AAGCGAAAGA | 1.03 ± 0.014 |
| AAGCGCGACG | 0.991 ± 0.027 |
| AAGCGGAGCC | 0.966 ± 0.023 |
| AAGCGGGAGG | 1.02 ± 0.011 |
| AAGCGGGCCT | 1.02 ± 0.026 |
| AAGCGTAGAT | 1.009 ± 0.0074 |
| AAGCGTTAGC | 1.01 ± 0.014 |
| AAGCGTTGAG | 1.009 ± 0.0045 |
| AAGCGTTGTA | 1.01 ± 0.02 |
| AAGCTCGACG | 0.9695 ± 0.0026 |

| Sequence | switch fluorescence ratio |
| --- | --- |
| AAGCTCGCCG | 0.981 ± 0.06 |
| AAGCTGGGAC | 1.08 ± 0.015 |
| AAGCTGGGGG | 0.969 ± 0.033 |
| AAGCTGGTG | 1.09 ± 0.042 |
| AAGGAAAAAC | 1.03 ± 0.029 |
| AAGGAAACGT | 1.04 ± 0.039 |
| AAGGAATAGT | 1.01 ± 0.026 |
| AAGGAATCGC | 1 ± 0.027 |
| AAGGAATGCA | 0.993 ± 0.022 |
| AAGGACGGCC | 0.998 ± 0.026 |
| AAGGAGAATA | 1.03 ± 0.012 |
| AAGGAGCTAT | 1.05 ± 0.026 |
| AAGGAGGGGG | 1.02 ± 0.058 |
| AAGGAGGGTA | 1.01 ± 0.038 |
| AAGGAGTTGT | 0.951 ± 0.05 |
| AAGGAGTTTG | 0.969 ± 0.045 |
| AAGGATCTGC | 0.967 ± 0.052 |
| AAGGATGAGG | 0.987 ± 0.021 |
| AAGGATGTAA | 0.995 ± 0.03 |
| AAGGATGTTT | 0.9824 ± 0.0033 |
| AAGGCAAATT | 0.986 ± 0.026 |
| AAGGCAAGTC | 1.13 ± 0.091 |
| AAGGCACTTT | 1.02 ± 0.013 |
| AAGGCAGATC | 1.05 ± 0.037 |
| AAGGCAGGTC | 1.02 ± 0.029 |

| Sequence | switch fluorescence ratio |
| --- | --- |
| AAGGCCCTGA | 0.994 ± 0.012 |
| AAGGCGAGGA | 1.043 ± 0.0043 |
| AAGGCGCTCT | 0.997 ± 0.014 |
| AAGGCGGATT | 1.26 ± 0.36 |
| AAGGCTGAGG | 0.985 ± 0.018 |
| AAGGCTGCGA | 1.018 ± 0.0076 |
| AAGGGAAGGG | 0.998 ± 0.025 |
| AAGGGAAGT | 1.02 ± 0.034 |
| AAGGGAATTA | 0.986 ± 0.015 |
| AAGGGACAAA | 1.04 ± 0.014 |
| AAGGGACGTG | 0.984 ± 0.019 |
| AAGGGAGAAA | 0.984 ± 0.06 |
| AAGGGAGAGA | 1.02 ± 0.011 |
| AAGGGAGCTG | 1.02 ± 0.15 |
| AAGGGAGGGA | 1.01 ± 0.036 |
| AAGGGATACG | 1.02 ± 0.015 |
| AAGGGATAGG | 0.9844 ± 0.001 |
| AAGGGATTGC | 0.995 ± 0.053 |
| AAGGGCAAAT | 0.978 ± 0.015 |
| AAGGGCCAAT | 1 ± 0.022 |
| AAGGGCCCGT | 1.02 ± 0.022 |
| AAGGGCGCAG | 0.993 ± 0.056 |
| AAGGGCTATA | 1.01 ± 0.047 |
| AAGGGCTGCG | 0.98 ± 0.1 |
| AAGGGCTTCT | 1.01 ± 0.018 |
